From US20260242478A1 (published 2026)
Where no end group is shown, it is not given here.

B1: Phage-2615 (peptide)
peptide: HEKWCIPPWMCEAN
modifications: cysteine pairing not given here; also: fused to phage pIII (clonal phage display)
notes: Clonal phage of the peptide-180 library; not shown: fused to pIII of the bacteriophage
B2: Phage-2617 (peptide)
peptide: YTPWCKPAWMCSVS
modifications: cysteine pairing not given here; also: displayed on phage pIII, linker not given here
notes: as for B1
B3: Phage-2616 (peptide)
peptide: QDNWCIPRWMCEAM
modifications: cysteine pairing not given here; also: displayed on phage pIII, linker not given here
notes: as for B1
B4: Phage-2613 (peptide)
peptide: MYNLCTPEWMCAGF
modifications: cysteine pairing not given here; also: displayed on phage pIII, linker not given here
notes: as for B1
B5: Phage-2618 (peptide)
peptide: AFKWCIPNWMCASQ
modifications: cysteine pairing not given here; also: fused to phage pIII (clonal phage display)
notes: as for B1
B6: Phage-2612 (peptide)
peptide: FANWCTPSWMCVGM
modifications: cysteine pairing not given here; also: displayed on phage pIII, linker not given here
notes: as for B1
B7: Phage-2614 (peptide)
peptide: HVNWCTPKWMCSGF
modifications: cysteine pairing not given here; also: displayed on phage pIII, linker not given here
notes: as for B1
B8: Phage-2611 (peptide)
peptide: VEKWCIPEWMCETS
modifications: cysteine pairing not given here; also: displayed on phage pIII, linker not given here
notes: as for B1
B9: Phage-2684 (peptide)
peptide: SEAWCIPSWMCRGD
modifications: cysteine pairing not given here; also: fused to phage pIII (clonal phage display)
notes: Tested as clonal phage supernatant; also called Peptide-180 library clone
B10: Phage-2685 (peptide)
peptide: PMKLCSPPWMCFYD
modifications: cysteine pairing not given here; also: displayed on bacteriophage as fusion to pIII, fusion and linker not given here
notes: as for B9
B11: Phage-2688 (peptide)
peptide: EAHLCKPLWMCEFG
modifications: cysteine pairing not given here; also: displayed on bacteriophage as fusion to pIII, fusion and linker not given here
notes: as for B9
B12: Phage-2683 (peptide)
peptide: EYAWCIPEWMCGWI
modifications: cysteine pairing not given here; also: displayed on bacteriophage as fusion to pIII, fusion and linker not given here
notes: as for B9
B13: Phage-2686 (peptide)
peptide: QNIRCVPPWMCENL
modifications: cysteine pairing not given here; also: displayed on bacteriophage as fusion to pIII, fusion and linker not given here
notes: as for B9
B14: Phage-2682 (peptide)
peptide: DVKWCIPSWMCQDV
modifications: cysteine pairing not given here; also: displayed on bacteriophage as fusion to pIII, fusion and linker not given here
notes: as for B9
B15: Phage-2689 (peptide)
peptide: IKPLCSPPWMCSMY
modifications: cysteine pairing not given here; also: displayed on bacteriophage as fusion to pIII, fusion and linker not given here
notes: as for B9
B16: Phage-2687 (peptide)
peptide: VHYWCIPAWMCNKS
modifications: cysteine pairing not given here; also: displayed on bacteriophage as fusion to pIII, fusion and linker not given here
notes: as for B9
B17: Phage-2690 (peptide)
peptide: LVKWCTPTWMCVGM
modifications: cysteine pairing not given here; also: displayed on bacteriophage as fusion to pIII, fusion and linker not given here
notes: as for B9
B18: Phage-2680 (peptide)
peptide: DMNWCSPPWMCFGF
modifications: cysteine pairing not given here; also: displayed on bacteriophage as fusion to pIII, fusion and linker not given here
notes: as for B9
B19: Phage-2681 (peptide)
peptide: GEKWCTPPWMCMFQ
modifications: cysteine pairing not given here; also: displayed on bacteriophage as fusion to pIII, fusion and linker not given here
notes: as for B9

These binders were tested against T1, PSMA Fab (biotinylated (site not stated)) (assay: clonal phage ELISA; PSMA Fab wells pre-incubated with PSMA antigen as competitor; anti-M13-HRP detection).
T1 construct: also called Anti-PSMA Fab; 006 PSMA Fab
With IANWCTPQWMCDGF [Phage-2620] the “Phage binding ELISA signal, Anti-PSMA Fab with PSMA antigen” value was 0.0631.
AEKWCIPEWMCEQL [Phage-2632] was tested, and the “Phage binding ELISA signal, Anti-PSMA Fab with PSMA antigen” value was 0.0717.
For FHMWCTPAWMCADQ (cysteine pairing not given here; also: displayed on phage as pIII fusion) [Phage-2622], the “Phage binding ELISA signal, Anti-PSMA Fab with PSMA antigen” value was 0.126.
THHWCIPAWMCEQD [Phage-2633] was tested, and the “Phage binding ELISA signal, Anti-PSMA Fab with PSMA antigen” value was 0.0809.
VEMLCKPAWMCANQ (cysteine pairing not given here; also: displayed on phage as pIII fusion) [Phage-2626] was tested, and the “Phage binding ELISA signal, Anti-PSMA Fab with PSMA antigen” value was 0.0829.
VVPRCTPPWMCLVS [Phage-2629] was tested, and the “Phage binding ELISA signal, Anti-PSMA Fab with PSMA antigen” value was 0.0785.
In the case of PETRCIPSWMCSGM [Phage-2625], the “Phage binding ELISA signal, Anti-PSMA Fab with PSMA antigen” value is reported as 0.0912.
VPKWCTPDWMCYGM [Phage-2621] was tested, and the “Phage binding ELISA signal, Anti-PSMA Fab with PSMA antigen” value was 0.0681.
VMSWCVPAWMCETP [Phage-2631] was tested, and the “Phage binding ELISA signal, Anti-PSMA Fab with PSMA antigen” value was 0.0614.
With WEKWCTPSGMCDAR [Phage-2627] the “Phage binding ELISA signal, Anti-PSMA Fab with PSMA antigen” value was 0.106.
For LNNWCTPLWMCQMF [Phage-2628], the “Phage binding ELISA signal, Anti-PSMA Fab with PSMA antigen” value was 0.201.
With MNKWCTPAWMCEVV (cysteine pairing not given here; also: displayed on phage as pIII fusion) [Phage-2619] the “Phage binding ELISA signal, Anti-PSMA Fab with PSMA antigen” value was 0.095.
In the case of MTQWCIPEWMCSEE [Phage-2624], the “Phage binding ELISA signal, Anti-PSMA Fab with PSMA antigen” value is reported as 0.0648.
For VTKLCIPEWMCASD (cysteine pairing not given here; also: displayed on phage as pIII fusion) [Phage-2630], the “Phage binding ELISA signal, Anti-PSMA Fab with PSMA antigen” value was 0.0961.
For TPKWCTPPWMCQHG [Phage-2623], the “Phage binding ELISA signal, Anti-PSMA Fab with PSMA antigen” value was 0.0728.

These binders were tested against T2, PSMA Fab (biotinylated (site not stated)) (assay: clonal phage ELISA on captured PSMA Fab, wells pre-incubated with PSMA antigen as competitor; column meaning inferred).
T2 construct: also called Anti-PSMA Fab; 006 PSMA Fab
B1 was tested, and the “Phage binding ELISA signal, Anti-PSMA Fab in presence of PSMA antigen” value (“Phage binding ELISA signal … of PSMA antigen” for short) was 0.0603.
With B2 the “Phage binding ELISA signal … of PSMA antigen” value was 0.0806.
In the case of B3, the “Phage binding ELISA signal … of PSMA antigen” value is reported as 0.0626.
B4 was tested, and the “Phage binding ELISA signal … of PSMA antigen” value was 0.0554.
For B5, the “Phage binding ELISA signal … of PSMA antigen” value was 0.0999.
B6 was tested, and the “Phage binding ELISA signal … of PSMA antigen” value was 0.0676.
For B7, the “Phage binding ELISA signal … of PSMA antigen” value was 0.0894.
In the case of B8, the “Phage binding ELISA signal … of PSMA antigen” value is reported as 0.0624.

These binders were tested against T3, PSMA Fab (006 PSMA Fab) (biotinylated (site not given)) (assay: clonal phage ELISA; biotinylated PSMA Fab on neutravidin plate, blocking buffer alone; anti-M13 HRP detection;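 further: crude clonal phage supernatants added without washing to wells pretreated with blocking buffer with or without PSMA antigen, short incubation, then washed before detecting bound phage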).
T3 construct: also called Anti-PSMA Fab; anti-PSMA Fab
In the case of B9, the “Phage binding ELISA signal, Anti-PSMA Fab” value is reported as 0.857.
In the case of B10, the “Phage binding ELISA signal, Anti-PSMA Fab” value is reported as 0.85.
B11 was tested, and the “Phage binding ELISA signal, Anti-PSMA Fab” value was 0.84.
In the case of B12, the “Phage binding ELISA signal, Anti-PSMA Fab” value is reported as 0.858.
With B13 the “Phage binding ELISA signal, Anti-PSMA Fab” value was 0.844.
For B14, the “Phage binding ELISA signal, Anti-PSMA Fab” value was 0.859.
For B15, the “Phage binding ELISA signal, Anti-PSMA Fab” value was 0.839.
In the case of B16, the “Phage binding ELISA signal, Anti-PSMA Fab” value is reported as 0.841.
B17 was tested, and the “Phage binding ELISA signal, Anti-PSMA Fab” value was 0.837.
For B18, the “Phage binding ELISA signal, Anti-PSMA Fab” value was 0.873.
In the case of B19, the “Phage binding ELISA signal, Anti-PSMA Fab” value is reported as 0.861.

These binders were tested against T2, PSMA Fab (assay: clonal phage ELISA on biotinylated PSMA Fab captured on neutravidin plates, anti-M13 HRP detection;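 further: crude clonal phage supernatants tested, before phage were added, wells were pretreated with PSMA antigen in blocking buffer or with blocking buffer only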).
Method: (§1) Clonal phage were harvested as crude supernatants and screened via standard ELISAs. […] Prior to the addition of clonal phage. wells were incubated with blocking buffer and PSMA antigen or blocking buffer alone. Without washing or aspirating, clonal phage supernatants were then added to the wells and incubated for a short time. Wells were then washed followed by detection of bound phage using a horse radish conjugated anti-M13 antibody.
B1 was tested, and the “Phage binding ELISA signal, Anti-PSMA Fab” value was 1.01.
In the case of B2, the “Phage binding ELISA signal, Anti-PSMA Fab” value is reported as 1.01.
In the case of B3, the “Phage binding ELISA signal, Anti-PSMA Fab” value is reported as 1.01.
B4 was tested, and the “Phage binding ELISA signal, Anti-PSMA Fab” value was 1.02.
In the case of B5, the “Phage binding ELISA signal, Anti-PSMA Fab” value is reported as 1.01.
With B6 the “Phage binding ELISA signal, Anti-PSMA Fab” value was 1.02.
For B7, the “Phage binding ELISA signal, Anti-PSMA Fab” value was 1.02.
In the case of B8, the “Phage binding ELISA signal, Anti-PSMA Fab” value is reported as 1.02.

These binders were tested against T1, PSMA Fab (assay: clonal phage ELISA; biotinylated PSMA Fab on neutravidin plate; bound phage detected with anti-M13-HRP).
Method: as §1
For IANWCTPQWMCDGF [Phage-2620], the “Phage binding ELISA signal, Anti-PSMA Fab” value was 0.997.
In the case of AEKWCIPEWMCEQL [Phage-2632], the “Phage binding ELISA signal, Anti-PSMA Fab” value is reported as 0.972.
For FHMWCTPAWMCADQ (cysteine pairing not given here; also: displayed on phage as pIII fusion) [Phage-2622], the “Phage binding ELISA signal, Anti-PSMA Fab” value was 0.996.
For THHWCIPAWMCEQD [Phage-2633], the “Phage binding ELISA signal, Anti-PSMA Fab” value was 0.967.
VEMLCKPAWMCANQ (cysteine pairing not given here; also: displayed on phage as pIII fusion) [Phage-2626] was tested, and the “Phage binding ELISA signal, Anti-PSMA Fab” value was 0.986.
In the case of VVPRCTPPWMCLVS [Phage-2629], the “Phage binding ELISA signal, Anti-PSMA Fab” value is reported as 0.976.
In the case of PETRCIPSWMCSGM [Phage-2625], the “Phage binding ELISA signal, Anti-PSMA Fab” value is reported as 0.989.
With VPKWCTPDWMCYGM [Phage-2621] the “Phage binding ELISA signal, Anti-PSMA Fab” value was 0.996.
For VMSWCVPAWMCETP [Phage-2631], the “Phage binding ELISA signal, Anti-PSMA Fab” value was 0.973.
In the case of WEKWCTPSGMCDAR [Phage-2627], the “Phage binding ELISA signal, Anti-PSMA Fab” value is reported as 0.982.
In the case of LNNWCTPLWMCQMF [Phage-2628], the “Phage binding ELISA signal, Anti-PSMA Fab” value is reported as 0.979.
MNKWCTPAWMCEVV (cysteine pairing not given here; also: displayed on phage as pIII fusion) [Phage-2619] was tested, and the “Phage binding ELISA signal, Anti-PSMA Fab” value was 0.998.
For MTQWCIPEWMCSEE [Phage-2624], the “Phage binding ELISA signal, Anti-PSMA Fab” value was 0.99.
For VTKLCIPEWMCASD (cysteine pairing not given here; also: displayed on phage as pIII fusion) [Phage-2630], the “Phage binding ELISA signal, Anti-PSMA Fab” value was 0.975.
TPKWCTPPWMCQHG [Phage-2623] was tested, and the “Phage binding ELISA signal, Anti-PSMA Fab” value was 0.994.
